Assay results taken from publication PMC2872155.

Legend:
[1] = system: VP35 IID (Zaire ebolavirus); assay: ITC; conditions: not given in the material (Methods absent)
[2] = system: VP35 IID (Zaire ebolavirus); assay: NMR; conditions: 5'ppp; not given in the material (Methods absent)
[3] = system: VP35 IID (Zaire ebolavirus); assay: NMR competition; conditions: 5'ppp; not given in the material (Methods absent)

8 bp dsRNA was tested, and the Kd [1] was 500 nM.
In the case of IVT-8 bp dsRNA, the binding signal (relative HSQC peak intensity) [2] is reported as 0.36 and the binding signal (relative HSQC peak intensity) [3] is reported as 0.42.
